Here are results for 3 variants from publication PMC9701752.

B1: PTPRJ transmembrane domain construct for the AraTM assay, wild type (five extracellular residues, putative TMD, 20 cytoplasmic juxtamembrane residues) [human] / FLT3 transmembrane domain construct for the AraTM assay (five … (parent)
chain 1: QDPGVICGAVFGCIFGALVIVTVGGFIFWRKKRKDAKNNEVSFSQIKP
chain 2: QDNISFYATIGVCLLFIVVLTLLICHKYKKQFRYESQLQMVQVTG

The variants in this assay derive from B1. The assay is described as follows: DN-AraTM assay. The settings on record: with FLT3 transmembrane domain construct for the AraTM assay (five extracellular residues, putative TMD, 20 cytoplasmic juxtamembrane residues); FLT3-AraC co-expressed with PTPRJ TMD-AraC* competitor; n=9; parent: 0.8; read off a plot.
As to chain 1 QDPGVICGAVFGCIFLALVIVTVGGFIFWRKKRKDAKNNEVSFSQIKP [chain 1 G16L], the response (normalized GFP signal (FLT3 alone = 1)) is 0.55.
Under chain 1 QDPGVICGAVFLCIFGALVIVTVGGFIFWRKKRKDAKNNEVSFSQIKP [chain 1 G12L] stands 0.56; under chain 1 QDPGVICLAVFGCIFGALVIVTVGGFIFWRKKRKDAKNNEVSFSQIKP [chain 1 G8L], 0.5.
